Data set [1] deals with the molecule itself. In words: SEC. Background: Size exclusion chromatography separates by hydrodynamic size, large species first.
Data set [2] concerns the molecule itself. The experiment in a line: SEC. The source holds these as a separate data set.

Where two headings read alike, the source gives them in different places.

B1: phosphoribulokinase of C. reinhardtii (enzyme, UniProt P19824 32-375, looked up)
chain: DKDKTVVIGLAADSGCGKSTFMRRMTSIFGGVPKPPAGGNPDSNTLISDMTTVICLDDYHCLDRNGRKVKGVTALAPEAQNFDLMYNQVKALKEGKSVDKPIYNHVSGLIDAPEKIESPPILVIEGLHPFYDKRVAELLDFKIYLDISDDIKFAWKIQRDMAERGHSLESIKSSIAARKPDFDAYIDPQKKDADMIIQVLPTQLVPDDKGQYLRVRLIMKEGSKMFDPVYLFDEGSTISWIPCGRKLTCSFPGIKMFYGPDTWYGQEVSVLEMDGQFDKLEELIYVESHLSNTSAKFYGEITQQMLKNSGFPGSNNGTGLFQTIVGLKVREVYERIVKKDVVPV
As for B1, in the data set “SEC [1]”, the “stoichiometry N” value was 2.

B2: phosphoribulokinase of A. thaliana (enzyme, A. thaliana (endogenous in leaves), UniProt P25697 47-395, looked up)
chain: AQETIVIGLAADSGCGKSTFMRRLTSVFGGAAKPPKGGNPDSNTLISDTTTVICLDDYHSLDRYGRKEQKVTALDPRANDFDLMYEQVKALKNGIAVEKPIYNHVTGLLDPPELIQPPKILVIEGLHPMFDERVRDLLDFSIYLDISNEVKFAWKIQRDMAERGHSLESIKASIEARKPDFDAFIDPQKQYADAVIEVLPTTLIPDDNEGKVLRVRLIMKEGVKYFSPVYLFDEGSTISWIPCGRKLTCSYPGIKFNYEPDSYFDHEVSVLEMDGQFDRLDELIYVESHLSNLSTKFYGEVTQQMLKHADFPGSNNGTGLFQTIVGLKIRDLYEQLIANKATARAEAKA
Regarding B2, in “SEC [2]”, the “stoichiometry N” value is 2.

In general, stoichiometry N refers to a count of units in the complex or per binding partner.
